Reference: patent US20220340678A1 (MURAL ONCOLOGY, published 2022)

How the values were obtained:
biotinylated human uPAR [1] = biological target: T1, biotinylated human uPAR (human, UniProt Q03405 23-303, limits assumed, biotinylated (site not stated)); assay: BLI (Octet) competition on biotinylated human uPAR; competitor (first antibody): M5
[2] = biological target: Human uPAR DII-DIII domain HisAvi Tag (human, biotinylated (site not stated)); assay: BLI (Octet), biotinylated domain on SA sensor, antibody 200 nM
[3] = biological target: T2, Human uPAR DIII domain HisAvi Tag (human, biotinylated (site not stated)); assay: as above
T2 chain: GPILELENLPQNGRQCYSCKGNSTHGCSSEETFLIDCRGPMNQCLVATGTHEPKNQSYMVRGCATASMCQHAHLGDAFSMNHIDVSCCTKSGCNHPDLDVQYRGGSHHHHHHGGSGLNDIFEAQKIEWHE

[4] = biological target: T3, histidine-tagged human uPAR (Sino#10925-H08H) (human, UniProt Q03405 23-303); assay: BLI (Octet), antibody on anti-mouse Fc sensor, uPAR in solution
T3 construct: also called uPAR-His
Protocol: Binding affinity analysis was carried out using the Octet platform based on bio-layer interferometry (BLI) technology. Briefly, uPAR antibodies were immobilized via an Anti-mouse Fc (AMC) sensor. Each uPAR antibody was tested at a concentration of 10 μg/mL. […] A bare sensor was used as a control.

biotinylated human uPAR [5] = biological target: T1, biotinylated human uPAR; assay: BLI (Octet) competition on biotinylated human uPAR; competitor (first antibody): ATN-368 (ATN-658)
Protocol: (§1) An antibody competition assay was performed using the Octet platform. The antibody competition assay was performed by capturing biotinylated human uPAR on SA sensors. […] The second ligand binding solution contained the same concentration of the first preload ligand to prevent its disassociation during second ligand binding.

[6] = biological target: T3, histidine-tagged human uPAR …; assay: BLI (Octet), uPAR on sensor, antibody in solution (avidity)
[7] = biological target: T4, human uPAR expressed on HEK293 cells (human, UniProt Q03405 23-305); assay: flow cytometry, HEK293 cells expressing human uPAR, 100 nM uPA present
T4 construct: whole, on cells; also called Hu-uPAR
Description: The antibodies were next tested for their ability to bind human and mouse uPAR expressed on the surface of cells. Human HEK293 cells engineered to express human uPAR or mouse uPAR were dye-labeled and mixed with unlabeled parental HEK293 cells.

biotinylated human uPAR [8] = biological target: T1, biotinylated human uPAR; assay: BLI (Octet) on biotinylated human uPAR; row 'None': no first antibody
Protocol: as §1

biotinylated human uPAR [9] = biological target: T1, biotinylated human uPAR; assay: BLI (Octet) competition on biotinylated human uPAR; competitor (first antibody): M1
Protocol: as §1

- response in competition assay (biotinylated human uPAR [1]): 0.365
- binding result [2]: binds
- binding result [3]: binds
- Kd [4]: 0.511 nM
- koff [4]: 0.00034 s⁻¹
- kon [4]: 664000 M⁻¹ s⁻¹
- response in competition assay (biotinylated human uPAR [5]): -0.0232
- Kd [6]: < 0.001 nM
- koff [6]: < 1e-07 s⁻¹
- kon [6]: 448000 M⁻¹ s⁻¹
- EC50 [7]: 0.66 nM
- response in competition assay (biotinylated human uPAR [8]): 0.305
- response in competition assay (biotinylated human uPAR [9]): -0.0441
B1: M1 (antibody, V domains shown)
VH: EVQLQQSGAELVRPGASVKLSCTASGFNIKDEYINWVKQRPEQGLEWIGWIDPENGDTEYASKFQGKATITADTSSNTAYLQLSSLTSEDTAVYYCTGGNYVGWFPYWGQGTLVTVSA
VL: QIVLTQSPAIMSASPGEKVTMTCSASSSVSYMHWYQQKSGTSPKRWLYDTSKLASGVPARFSGSGSGTSYSLTISSMEAEDAATYYCQQWSSNPPYTFGGGTKLEIK
notes: Mouse hybridoma antibody; also called anti-uPAR antibody M1; parental M1
